Data published in publication PMC6197867, “Isolation and purification of recombinant immunoglobulin light chain variable domains from the periplasmic space of Escherichia coli” (PLoS ONE, 2018).

Molecular target: the molecule itself
Test: SEC-MALS; 1.0 mg/mL protein on HiLoad 16/60 Superdex 75 in 10 mM Tris-HCl pH 7.5, 150 mM NaCl, 0.75 mL/min, 25 °C; monomer to dimer

Protein | stoichiometry N
LEN immunoglobulin light chain variable domain (kappa 4), recombinant (domain or fragment, 114 amino acid kappa 4 light chain variable domain of the Bence Jones protein LEN, from a patient with multiple myeloma; The C-terminal Lys-His8 of pOPINO was removed by a premature stop codon; removal of the ompA leader was confirmed by mass spectrometry, so the protein has no added residues; also called VL LEN; source: E. coli C41 (DE3), periplasmic expression, osmotic shock, purified …) VL: not shown | 2
SMA immunoglobulin light chain variable domain (kappa 4), recombinant (domain or fragment, 114 amino acid kappa 4 light chain variable domain SMA, first extracted as amyloid fibrils from a patient with AL amyloidosis; The C-terminal Lys-His8 of pOPINO was removed by a premature stop codon; the ompA leader is cleaved; also called VL SMA; source: E. coli C41 (DE3), periplasmic expression, osmotic shock, purified (isoelectric precipitation, cation exchange, SEC); not shown: ompA leader …) VL: not shown | 2
